In this assay the target is ErbB4 (full-length, expressed in mammalian cells) (human) (UniProt Q15303). In words: cell-based or functional assay.

The record followed here is US20060029546A1, “Materials and methods for identifying anti-schizophrenic agents” (deCODE Genetics, Inc., priority 2004, published 2006).

ErbB4 (full-length, expressed in mammalian cells) (human), sequence (Q15303 26-1308 limits assumed): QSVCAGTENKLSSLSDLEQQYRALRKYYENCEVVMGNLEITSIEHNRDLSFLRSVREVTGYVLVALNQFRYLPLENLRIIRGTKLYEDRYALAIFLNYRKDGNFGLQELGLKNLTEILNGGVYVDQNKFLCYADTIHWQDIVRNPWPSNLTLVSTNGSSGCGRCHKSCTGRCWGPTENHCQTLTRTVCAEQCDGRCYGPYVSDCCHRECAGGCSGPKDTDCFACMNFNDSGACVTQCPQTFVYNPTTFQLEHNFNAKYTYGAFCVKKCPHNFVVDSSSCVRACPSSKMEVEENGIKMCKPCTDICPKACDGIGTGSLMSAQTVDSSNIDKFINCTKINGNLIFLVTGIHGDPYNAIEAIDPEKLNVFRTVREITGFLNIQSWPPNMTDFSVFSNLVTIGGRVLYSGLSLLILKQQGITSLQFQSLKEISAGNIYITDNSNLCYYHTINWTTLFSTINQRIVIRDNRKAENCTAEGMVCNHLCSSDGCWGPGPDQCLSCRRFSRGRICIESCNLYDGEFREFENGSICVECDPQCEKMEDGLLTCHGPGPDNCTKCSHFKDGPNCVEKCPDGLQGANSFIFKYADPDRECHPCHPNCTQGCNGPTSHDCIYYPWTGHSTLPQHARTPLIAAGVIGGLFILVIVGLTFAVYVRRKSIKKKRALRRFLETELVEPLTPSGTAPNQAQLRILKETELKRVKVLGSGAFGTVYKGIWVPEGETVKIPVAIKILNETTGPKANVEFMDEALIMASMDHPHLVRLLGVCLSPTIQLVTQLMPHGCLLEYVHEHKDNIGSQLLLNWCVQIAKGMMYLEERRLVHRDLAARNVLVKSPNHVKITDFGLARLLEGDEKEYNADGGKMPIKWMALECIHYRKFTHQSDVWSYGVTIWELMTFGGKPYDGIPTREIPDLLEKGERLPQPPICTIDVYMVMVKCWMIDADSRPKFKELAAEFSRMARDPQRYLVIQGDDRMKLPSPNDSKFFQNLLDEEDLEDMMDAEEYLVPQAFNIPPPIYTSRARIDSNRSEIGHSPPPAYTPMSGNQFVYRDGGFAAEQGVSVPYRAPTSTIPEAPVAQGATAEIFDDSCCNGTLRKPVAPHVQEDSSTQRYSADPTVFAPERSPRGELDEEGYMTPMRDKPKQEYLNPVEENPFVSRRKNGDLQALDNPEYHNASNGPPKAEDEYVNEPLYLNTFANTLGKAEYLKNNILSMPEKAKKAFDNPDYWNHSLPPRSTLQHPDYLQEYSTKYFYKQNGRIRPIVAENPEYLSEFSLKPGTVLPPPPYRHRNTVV

In turn, “NRG1 (recombinant human HRG-αEGF domain; R&D Systems) (from UniProt Q02297 177-241) (ligand)” gave an NRG1 EC50, luciferase reporter gene under a promoter containing a serum response element (SRE), CHO-K1 cells expressing ErbB4 with or without Fyn of 1 nM.
